# Measured values as given in article PMC8694188, “EPSP Synthase-Depleted Cells Are Aromatic Amino Acid Auxotrophs in Mycobacterium smegmatis” (Microbiology Spectrum, 2021).
# Substrate: C=C(OP(=O)(O)O)C(=O)O
# Assay: continuous coupled spectrophotometric Pi release assay (MtPNP / MESG)
# Assay type: biochemical, Mycolicibacterium smegmatis
# Details: apparent constant, PEP varied at fixed-saturating S3P, 100 mM Tris-HCl pH 7.8, 25°C
# From the text: continuous coupled spectrophotometric Pi release assay (MtPNP / MESG) on MsEPSPS
Protein,Km,kcat,kcat/Km
"MsEPSPS (Mycolicibacterium smegmatis MC2 155) (protein, full-length WT aroA in pET-23a(+) (NdeI/HindIII), expressed in E. coli; no tag evident (native stop codon in reverse primer, ion-exchange and hydrophobic purification); apparent mass 46 kDa on SDS-PAGE) MSARADEEQKPHWAAPSTTAPVDATVTVPGSKSLTNRALILAALATSQGTSTISGALRSRDTDLMIEAIRTLGVTVDISAADPTELTVHGSIEPATDATVDCGLAGTVLRFVPPVAALSRSSVTFDGDEQARSRPIAPLLDGLRRLGVRLDGDGLPFTVRGTGTVSGGTVEIDASGSSQFVSGLLLSGAGFENGLTIVHTGVSVPSAPHVAMTVAMLRDAGVEVDDSVANRWQVNPGPVAARSWNIEPDLSNSTPFLAAALVTGGTVRIAGWPTVSIQPADTILELLATVGGSVREADGHLEVTGAHEYGGFEADLHDVGELAPTVAALAALAKEGSTSQLRGIAHLRGHETDRLAALTTEINGLGGDCRETDDGLLITARPLHGGTWRSYADHRMATAGAIVGLRVPGVVVENIETTAKTLPDFPSMWVDMLAGEPGRNQQR",88 ± 11 µM,0.553 ± 0.0185 s⁻¹,6280 M⁻¹ s⁻¹
"MsEPSPS (Mycolicibacterium smegmatis MC2 155; D61W) (protein, full-length WT aroA in pET-23a(+) (NdeI/HindIII), expressed in E. coli; no tag evident (native stop codon in reverse primer, ion-exchange and hydrophobic purification); apparent mass 46 kDa on SDS-PAGE) MSARADEEQKPHWAAPSTTAPVDATVTVPGSKSLTNRALILAALATSQGTSTISGALRSRWTDLMIEAIRTLGVTVDISAADPTELTVHGSIEPATDATVDCGLAGTVLRFVPPVAALSRSSVTFDGDEQARSRPIAPLLDGLRRLGVRLDGDGLPFTVRGTGTVSGGTVEIDASGSSQFVSGLLLSGAGFENGLTIVHTGVSVPSAPHVAMTVAMLRDAGVEVDDSVANRWQVNPGPVAARSWNIEPDLSNSTPFLAAALVTGGTVRIAGWPTVSIQPADTILELLATVGGSVREADGHLEVTGAHEYGGFEADLHDVGELAPTVAALAALAKEGSTSQLRGIAHLRGHETDRLAALTTEINGLGGDCRETDDGLLITARPLHGGTWRSYADHRMATAGAIVGLRVPGVVVENIETTAKTLPDFPSMWVDMLAGEPGRNQQR","1,014 ± 975 μM",0.107 ± 0.0608 s⁻¹,106 M⁻¹ s⁻¹
"MsEPSPS (Mycolicibacterium smegmatis MC2 155; E321N) (protein, full-length WT aroA in pET-23a(+) (NdeI/HindIII), expressed in E. coli; no tag evident (native stop codon in reverse primer, ion-exchange and hydrophobic purification); apparent mass 46 kDa on SDS-PAGE) MSARADEEQKPHWAAPSTTAPVDATVTVPGSKSLTNRALILAALATSQGTSTISGALRSRDTDLMIEAIRTLGVTVDISAADPTELTVHGSIEPATDATVDCGLAGTVLRFVPPVAALSRSSVTFDGDEQARSRPIAPLLDGLRRLGVRLDGDGLPFTVRGTGTVSGGTVEIDASGSSQFVSGLLLSGAGFENGLTIVHTGVSVPSAPHVAMTVAMLRDAGVEVDDSVANRWQVNPGPVAARSWNIEPDLSNSTPFLAAALVTGGTVRIAGWPTVSIQPADTILELLATVGGSVREADGHLEVTGAHEYGGFEADLHDVGNLAPTVAALAALAKEGSTSQLRGIAHLRGHETDRLAALTTEINGLGGDCRETDDGLLITARPLHGGTWRSYADHRMATAGAIVGLRVPGVVVENIETTAKTLPDFPSMWVDMLAGEPGRNQQR","3,081 ± 808 μM",0.438 ± 0.0469 s⁻¹,142 M⁻¹ s⁻¹
"MsEPSPS (Mycolicibacterium smegmatis MC2 155; R134A) (protein, full-length WT aroA in pET-23a(+) (NdeI/HindIII), expressed in E. coli; no tag evident (native stop codon in reverse primer, ion-exchange and hydrophobic purification); apparent mass 46 kDa on SDS-PAGE) MSARADEEQKPHWAAPSTTAPVDATVTVPGSKSLTNRALILAALATSQGTSTISGALRSRDTDLMIEAIRTLGVTVDISAADPTELTVHGSIEPATDATVDCGLAGTVLRFVPPVAALSRSSVTFDGDEQARSAPIAPLLDGLRRLGVRLDGDGLPFTVRGTGTVSGGTVEIDASGSSQFVSGLLLSGAGFENGLTIVHTGVSVPSAPHVAMTVAMLRDAGVEVDDSVANRWQVNPGPVAARSWNIEPDLSNSTPFLAAALVTGGTVRIAGWPTVSIQPADTILELLATVGGSVREADGHLEVTGAHEYGGFEADLHDVGELAPTVAALAALAKEGSTSQLRGIAHLRGHETDRLAALTTEINGLGGDCRETDDGLLITARPLHGGTWRSYADHRMATAGAIVGLRVPGVVVENIETTAKTLPDFPSMWVDMLAGEPGRNQQR","3,676 ± 1,007 μM",0.184 ± 0.033 s⁻¹,50.1 M⁻¹ s⁻¹
